We go through 1 substance from article PMC5380960.

This assay concerns the target LH2-G1 (wild-type LH2 with the N-terminal fragment of Gaussia luciferase fused to its C-terminus) (UniProt O00469). As to the kind of experiment: split reporter (BiFC, NanoBiT); Gaussia luciferase protein-fragment complementation; LH2-G1 and FKBP65-G2 plasmids co-transfected 1:1 into 293F cells, 48 h, passive lysis buffer, luciferase activity of total cell lysates with 20 μM native coelenterazine.
Chain of UniProt O00469 (O00469 26-737): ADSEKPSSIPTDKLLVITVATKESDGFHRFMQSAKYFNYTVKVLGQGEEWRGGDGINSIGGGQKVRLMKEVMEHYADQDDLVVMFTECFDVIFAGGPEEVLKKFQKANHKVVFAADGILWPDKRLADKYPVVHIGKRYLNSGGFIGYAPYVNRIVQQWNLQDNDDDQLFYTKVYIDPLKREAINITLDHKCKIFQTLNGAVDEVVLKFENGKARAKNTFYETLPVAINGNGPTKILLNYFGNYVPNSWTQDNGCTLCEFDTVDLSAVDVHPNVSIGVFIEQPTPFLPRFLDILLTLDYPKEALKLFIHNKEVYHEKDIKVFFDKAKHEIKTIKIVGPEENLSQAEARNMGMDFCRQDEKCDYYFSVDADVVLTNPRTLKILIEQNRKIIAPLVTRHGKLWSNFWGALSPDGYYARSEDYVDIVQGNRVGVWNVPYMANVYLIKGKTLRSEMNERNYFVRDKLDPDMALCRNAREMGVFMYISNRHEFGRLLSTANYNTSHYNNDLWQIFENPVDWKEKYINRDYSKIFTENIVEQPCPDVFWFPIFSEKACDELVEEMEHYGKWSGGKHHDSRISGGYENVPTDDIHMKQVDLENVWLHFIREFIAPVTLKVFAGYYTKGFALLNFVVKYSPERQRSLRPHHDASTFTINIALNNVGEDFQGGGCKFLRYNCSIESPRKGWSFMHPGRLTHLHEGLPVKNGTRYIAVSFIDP

Turning to “FKBP65-G2 (FKBP65 with the C-terminal fragment of Gaussia luciferase fused to its C-terminus) (from UniProt Q96AY3 27-582) (enzyme)”, the fold luciferase activity of co-transfected cells over either vector alone came out at 800 fold.
